Biological target: the molecule itself
Assay: dynamic light scattering, self-association

B1: recombinant wild-type MHV nsp15 protein, SUMO-fusion protein purified from E. coli (enzyme)
chain: SLENVVYNLVNAGHFDGRAGELPCAVIGEKVIAKIQNEDVVVFKNNTPFPTNVAVELFAKRSIRPHPELKLFRNLNIDVCWSHVLWDYAKDSVFCSSTYKVCKYTDLQCIESLNVLFDGRDNGALEAFKKCRNGVYINTTKIKSLSMIKGPQRADLNGVVVEKVGDSDVEFWFAVRKDGDDVIFSRTGSLEPSHYRSPQGNPGGNRVGDLSGNEALARGTIFTQSRLLSSFTPRSEMEKDFMDLDDDVFIAKYSLQDYAFEHVVYGSFNQKIIGGLHLLIGLARRQQKSNLVIQEFVTYDSSIHSYFITDENSGSSKSVCTVIDLLLDDFVDIVKSLNLKCVSKVVNVNVDFKDFQFMLWCNEEKVMTFYPRLQ
notes: domain: nsp15; also called WT nsp15; WT MHV Nsp15; not shown: His-SUMO tag from the pET-His-SUMO vector
binding result: binds

Reference: patent US20180333482A1 (LOYOLA UNIVERSITY OF CHICAGO, published 2018)
